# Measurements taken from patent US20170088632A1 (OMEROS, published 2017).
# Where “and” joins values, the source holds several entries; their conditions need not be identical. Equal entries are not always repeated.
# Columns and labels:
# [1] = biological target: T1, human MASP-2A (catalytically inactive human MASP-2, Ser618 to Ala618) (human, UniProt O00187 16-686); assay: ELISA, purified scFv titrated on physically adsorbed human MASP-2A
# T1 construct: the ELISA and Biacore methods say only 'MASP-2A', so a tag may have been present; also called huMASP2A; huMASP-2A
# [2] = biological target: T2, human MASP-2 (human, UniProt O00187 16-686); assay: titration ELISA on MASP-2 (10 µg/ml)
# T2 construct: also called hMASP-2; recombinant human MASP-2
# [3] = biological target: T2, human MASP-2; assay: cell-based or functional assay
# [4] = biological target: T1, human MASP-2A (catalytically inactive …); assay: titration ELISA on coated human MASP-2A ('Binding affinity'), IgG4 mutated format
# Experimental: (§1) The clones were then purified and re-tested in an ELISA and activity assay as follows. Human MASP-2A was coated at 3 μg/ml in PBS on a maxisorp plate, IgG (45 μg/ml) and Fab′2 (30 μg/ml) were diluted in PBS-Tween to a starting concentration of 300 nM, and further with 3-fold dilutions. IgGs were detected with HRP conjugated Goat α-Human IgG (Southern Biotech) and the F(ab′)2 were detected with HRP-conjugated Goat α-Human IgG H+L (Pierce 31412). The reaction was developed with TMB substrate and stopped with 2M H₂SO₄.
# [5] = biological target: T1, human MASP-2A (catalytically inactive …); assay: titration ELISA on coated human MASP-2A ('Binding affinity'), F(ab′)2
# Experimental: as §1
# [6] = biological target: T2, human MASP-2; assay: cell-based or functional assay; remark: listed apart in the source
# [7] = biological target: T2, human MASP-2; assay: cell-based or functional assay; remark: listed apart in the source
# [8] = biological target: T3, African Green monkey MASP-2 (in African Green monkey serum) (African Green monkey); assay: cell-based or functional assay
# [9] = biological target: T4, rat MASP-2 (in rat serum) (rat, UniProt Q9JJS8 20-685); assay: cell-based or functional assay
# [10] = biological target: T2, human MASP-2; assay: cell-based or functional assay; remark: listed apart in the source
# [11] = biological target: T2, human MASP-2; assay: cell-based or functional assay; remark: listed apart in the source
# [12] = biological target: T1, human MASP-2A (catalytically inactive …); assay: SPR (Biacore), scFv captured by anti-cMyc antibody, MASP-2A in solution
# [13] = biological target: T2, human MASP-2; assay: cell-based or functional assay; remark: listed apart in the source
# [14] = biological target: T1, human MASP-2A (catalytically inactive …); assay: SPR (Biacore), MASP-2A amine coupled to CM5 chip, scFv monomer in solution
# [15] = biological target: T3, African Green monkey MASP-2 (in African …); assay: cell-based or functional assay; remark: listed apart in the source
# [16] = biological target: T2, human MASP-2; assay: cell-based or functional assay; remark: listed apart in the source
# [17] = biological target: T2, human MASP-2; assay: selectivity for human MASP-2 over C1s (method not detailed; see FIG. 16)
# [18] = biological target: T2, human MASP-2; assay: cell-based or functional assay; remark: listed apart in the source
# [19] = biological target: T4, rat MASP-2 (in rat serum); assay: cell-based or functional assay; remark: listed apart in the source
# [20] = biological target: T3, African Green monkey MASP-2 (in African …); assay: cell-based or functional assay; remark: listed apart in the source
# T1 sequence (O00187 16-686 S633A): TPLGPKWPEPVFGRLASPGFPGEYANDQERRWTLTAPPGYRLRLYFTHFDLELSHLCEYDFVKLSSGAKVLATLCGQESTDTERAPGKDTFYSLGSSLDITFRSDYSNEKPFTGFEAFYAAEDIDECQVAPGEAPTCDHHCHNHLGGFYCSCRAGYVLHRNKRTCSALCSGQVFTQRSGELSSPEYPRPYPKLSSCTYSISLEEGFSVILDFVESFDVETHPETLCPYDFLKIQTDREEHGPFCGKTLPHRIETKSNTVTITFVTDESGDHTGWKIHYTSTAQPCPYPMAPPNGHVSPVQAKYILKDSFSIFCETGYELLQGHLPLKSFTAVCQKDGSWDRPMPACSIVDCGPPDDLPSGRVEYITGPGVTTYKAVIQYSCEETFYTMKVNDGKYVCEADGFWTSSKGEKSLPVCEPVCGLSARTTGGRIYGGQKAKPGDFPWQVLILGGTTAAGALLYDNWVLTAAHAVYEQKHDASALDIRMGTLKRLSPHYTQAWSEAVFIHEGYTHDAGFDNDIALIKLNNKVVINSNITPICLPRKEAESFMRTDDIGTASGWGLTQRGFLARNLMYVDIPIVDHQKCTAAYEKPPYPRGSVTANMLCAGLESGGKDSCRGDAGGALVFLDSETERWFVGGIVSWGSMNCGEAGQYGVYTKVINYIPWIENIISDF
# T4 sequence (Q9JJS8 other isoform, or with tags, fused parts or gaps limits assumed): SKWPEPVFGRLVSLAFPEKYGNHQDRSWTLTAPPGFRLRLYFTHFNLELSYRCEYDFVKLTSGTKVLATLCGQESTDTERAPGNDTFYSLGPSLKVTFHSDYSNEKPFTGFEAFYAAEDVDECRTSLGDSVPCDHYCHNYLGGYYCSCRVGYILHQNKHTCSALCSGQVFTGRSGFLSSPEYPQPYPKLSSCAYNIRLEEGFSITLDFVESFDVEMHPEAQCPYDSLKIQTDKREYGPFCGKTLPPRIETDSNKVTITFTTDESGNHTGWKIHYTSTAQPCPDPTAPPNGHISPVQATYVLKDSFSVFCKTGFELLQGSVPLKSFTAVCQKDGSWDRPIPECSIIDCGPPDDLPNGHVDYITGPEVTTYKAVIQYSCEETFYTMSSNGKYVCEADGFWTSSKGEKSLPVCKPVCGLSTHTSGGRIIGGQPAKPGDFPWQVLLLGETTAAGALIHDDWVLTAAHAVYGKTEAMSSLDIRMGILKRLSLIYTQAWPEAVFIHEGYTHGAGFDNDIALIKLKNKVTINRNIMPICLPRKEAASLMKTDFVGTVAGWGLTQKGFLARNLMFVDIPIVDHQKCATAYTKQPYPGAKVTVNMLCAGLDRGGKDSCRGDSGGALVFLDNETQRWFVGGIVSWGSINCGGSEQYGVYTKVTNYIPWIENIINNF
# T2 sequence (O00187 16-686): as the sequence (O00187 16-686 S633A) above, with A618S counted along it
binder,measurement,setting,value
scFv daughter clone 17D20m_d21N11 (scFv) scFv: QVTLKESGPVLVKPTETLTLTCTVSGFSLSRGKMGVSWIRQPPGKALEWLAHIFSSDEKSYRTSLKSRLTISKDTSKNQVVLTMTNMDPVDTATYYCARIRAGGIDYWGQGTLVTVSSKLSGSASAPKLEEGEFSEARVQPVLTQPPSLSVSPGQTASITCSGEKLGDKYAYWYQQKPGQSPVLVMYQDKQRPSGIPERFSGSNSGNTATLTISGTQAMDEADYYCQAWDSSTAVFGGGTKLTVL,EC50 (read off the curve),[1],~3 nM
same,Kd,[2],10 nM
same,1% human serum C3 assay IC50,[3],360 nM
same,90% human serum C4 assay IC50,[3],~500 nM
"17N16 mother clone, IgG4 hinge mutant (S228P) format (antibody, V domains shown, IgG4 S228P; also called 17N16 IgG4 mutated format) VH: QVQLQQSGPGLVKPSQTLSLTCAISGDSVSSTSAAWNWIRQSPSRGLEWLGRTYYRSKWYNDYAVSVKSRITINPDTSKNQFSLQLNSVTPEDTAVYYCARDPFGVPFDIWGQGTMVTVSS VL: SYVLTQPPSVSVAPGQTARITCGGNNIGSKNVHWYQQKPGQAPVLVVYDDSDRPSGIPERFSGSNSGNTATLTVSRVEAGDEADYYCQVWDTTTDHVVFGGGTKLTVL",Kd,[4],0.0206 nM
"17N16 mother clone, F(ab′)2 format (Fab, V domains shown, also called 17N16 F(ab′)2) VH: QVQLQQSGPGLVKPSQTLSLTCAISGDSVSSTSAAWNWIRQSPSRGLEWLGRTYYRSKWYNDYAVSVKSRITINPDTSKNQFSLQLNSVTPEDTAVYYCARDPFGVPFDIWGQGTMVTVSS VL: SYVLTQPPSVSVAPGQTARITCGGNNIGSKNVHWYQQKPGQAPVLVVYDDSDRPSGIPERFSGSNSGNTATLTVSRVEAGDEADYYCQVWDTTTDHVVFGGGTKLTVL",Kd,[5],0.0959 nM
"17D20 mother clone, IgG4 hinge mutant (S228P) format (antibody, V domains shown, IgG4 S228P; also called 17D20 IgG4 mutated format; 17D20 IgG4 S228P) VH: QVTLKESGPVLVKPTETLTLTCTVSGFSLSRGKMGVSWIRQPPGKALEWLAHIFSSDEKSYRTSLKSRLTISKDTSKNQVVLTMTNMDPVDTATYYCARIRAGGIDYWGQGTLVTVSS VL: QPVLTQPPSVSVSPGQTASITCSGDKLGDKFAYWYQQKPGHSPVLVIYQDNKRPSGIPGRFSGSNSGNTATLTISGTQAMDEADYYCQAWDSSTAVFGTGTKVTVLA",Kd,[4],0.0284 nM
same,"C4b deposition in 90% human serum, IC50 relative to the C3b deposition assay",[6],~3 fold
same,"C3b deposition assay in 1% human serum, IC50",[7],11 nM and 27 nM
scFv mother clone 17L20 (scFv) scFv: EVQLQQSGPGLVKPSQTLSLTCAISGDSVSSKRAAWDWIRQSPSRGLEWLGRTYYRSKWFNDYAISVKSRITINADTSRNQFSLQLNSVTPEDTAVYYCVKSNSGTGAFDSWGQGTLVTVSSKLSGSASAPKLEEGEFSEARVQPGLTQPPSVSVSPGQTARITCSRDKLGDKYVSWYQQKPGQSPVVVMYKDNKRPSGIPERFSGSNSGNTATLTISGTQAMDEADYYCQAWDSSTAGVFGGGTKLTVLAAAGSEQKLISEEDLNSHHHHHH,"Functional IC50, C3b deposition, non-human primate serum Exp #2",[8],71.7 nM
same,"Functional IC50, C3b deposition, rat serum Exp #1",[9],41 nM
same,"Functional IC50, C3b deposition, human serum Exp #2",[10],104 nM
same,"Functional IC50, C3b deposition, human serum Exp #3",[10],308 nM
same,"Functional IC50, C3b deposition, human serum Exp #4",[10],199 nM
"scFv mother clone 17D20 (scFv, also called 17D20 (17P10); 17D20mc) scFv: QVTLKESGPVLVKPTETLTLTCTVSGFSLSRGKMGVSWIRQPPGKALEWLAHIFSSDEKSYRTSLKSRLTISKDTSKNQVVLTMTNMDPVDTATYYCARIRAGGIDYWGQGTLVTVSSKLSGSASAPKLEEGEFSEARVQPVLTQPPSVSVSPGQTASITCSGDKLGDKFAYWYQQKPGHSPVLVIYQDNKRPSGIPGRFSGSNSGNTATLTISGTQAMDEADYYCQAWDSSTAVFGTGTKVTVLAAAGSEQKLISEEDLNSHHHHHH","C3 convertase assay using 1% human serum, IC50 (first experiment)",[11],98.3 nM
same,"C3 convertase assay using 1% human serum, IC50 (second experiment)",[11],151 nM
same,EC50 (read off the curve),[1],~2 nM
same,Kd,[12],0.76 nM
same,"Inhibitory activity in Human Serum IC50 (C3b deposition, 0.5% human serum)",[13],157 nM
same,Kd,[2],1.9 nM
same,Kd,[14],11.3 nM
same,"Functional IC50, C3b deposition, non-human primate serum Exp #1",[8],94.8 nM
same,"Functional IC50, C3b deposition, non-human primate serum Exp #2",[8],71.8 nM
same,"Functional IC50, C3b deposition, rat serum Exp #1",[9],434 nM
same,"Functional IC50, C3b deposition, human serum Exp #1",[10],157 nM
same,"Functional IC50, C3b deposition, human serum Exp #2",[10],39.9 nM
same,"Functional IC50, C3b deposition, human serum Exp #3",[10],24.1 nM
same,"Functional IC50, C3b deposition, human serum Exp #4",[10],23.7 nM
same,"C3 Assay IC50, non-human primate serum Exp #1",[15],94 nM
same,"C3 Assay IC50, non-human primate serum Exp #2",[15],74 nM
same,"C3 Assay IC50, non-human primate serum mean",[15],84 nM
same,"C3 Assay IC50 in dilute serum (1%), human serum Exp #1",[16],24 nM
same,"C3 Assay IC50 in dilute serum (1%), human serum Exp #2",[16],24 nM
same,"C3 Assay IC50 in dilute serum (1%), human serum Exp #3",[16],40 nM
same,"C3 Assay IC50 in dilute serum (1%), human serum mean",[16],29 nM
same,1% human serum C3 assay IC50,[3],38 nM
"MoAb #1 (OMS641), 17N16m_d17N9 IgG2 (antibody, also called MoAb#1 (IgG2); 17N16_17N9) heavy: QVQLQQSGPGLVKPSQTLSLTCAISGDSVSSTSAAWNWIRQSPSRGLEWLGRTYYRSKWYNDYAVSVKSRITINPDTSKNQFSLQLNSVTPEDTAVYYCARDPFGVPFDIWGQGTMVTVSSASTKGPSVFPLAPCSRSTSESTAALGCLVKDYFPEPVTVSWNSGALTSGVHTFPAVLQSSGLYSLSSVVTVPSSNFGTQTYTCNVDHKPSNTKVDKTVERKCCVECPPCPAPPVAGPSVFLFPPKPKDTLMISRTPEVTCVVVDVSHEDPEVQFNWYVDGVEVHNAKTKPREEQFNSTFRVVSVLTVVHQDWLNGKEYKCKVSNKGLPAPIEKTISKTKGQPREPQVYTLPPSREEMTKNQVSLTCLVKGFYPSDIAVEWESNGQPENNYKTTPPMLDSDGSFFLYSKLTVDKSRWQQGNVFSCSVMHEALHNHYTQKSLSLSPGK light: SYELIQPPSVSVAPGQTATITCAGDNLGKKRVHWYQQRPGQAPVLVIYDDSDRPSGIPDRFSASNSGNTATLTITRGEAGDEADYYCQVWDIATDHVVFGGGTKLTVLGQPKAAPSVTLFPPSSEELQANKATLVCLISDFYPGAVTVAWKADSSPVKAGVETTTPSKQSNNKYAASSYLSLTPEQWKSHRSYSCQVTHEGSTVEKTVAPTECS",Selectivity over C1s,[17],> 5000 fold
same,"Human C3 Assay IC50, 90% human serum",[18],20 nM
same,"Human C4 assay IC50, 90% human serum",[18],30 nM
"MoAb #2 (OMS642), 17N16m_d17N9 IgG4 (antibody, also called MoAb#2 (IgG4)) heavy: not shown light: SYELIQPPSVSVAPGQTATITCAGDNLGKKRVHWYQQRPGQAPVLVIYDDSDRPSGIPDRFSASNSGNTATLTITRGEAGDEADYYCQVWDIATDHVVFGGGTKLTVLGQPKAAPSVTLFPPSSEELQANKATLVCLISDFYPGAVTVAWKADSSPVKAGVETTTPSKQSNNKYAASSYLSLTPEQWKSHRSYSCQVTHEGSTVEKTVAPTECS",Inhibition of Rat C3b IC50,[19],100 nM
same,Selectivity over C1s,[17],> 5000 fold
same,African Green Monkey C3 assay IC50,[20],26 nM
same,"Human C3 Assay IC50, 90% human serum",[18],3 nM
same,"Human C4 assay IC50, 90% human serum",[18],30 nM
"MoAb #3 (OMS643), 17N16m_d17N9 IgG4 (mutant, S228P) (antibody, also called MoAb#3 (IgG4 mutant)) heavy: not shown light: SYELIQPPSVSVAPGQTATITCAGDNLGKKRVHWYQQRPGQAPVLVIYDDSDRPSGIPDRFSASNSGNTATLTITRGEAGDEADYYCQVWDIATDHVVFGGGTKLTVLGQPKAAPSVTLFPPSSEELQANKATLVCLISDFYPGAVTVAWKADSSPVKAGVETTTPSKQSNNKYAASSYLSLTPEQWKSHRSYSCQVTHEGSTVEKTVAPTECS",Inhibition of Rat C3b IC50,[19],200 nM
same,Selectivity over C1s,[17],> 5000 fold
same,"Human C3 Assay IC50, 90% human serum",[18],12 nM
same,"Human C4 assay IC50, 90% human serum",[18],30 nM
